Measured values as given in article PMC10641233, “The C-terminal domain of the antiamyloid chaperone DNAJB6 binds to amyloid-β peptide fibrils and inhibits secondary nucleation” (The Journal of Biological Chemistry, 2023).
Substitutions are numbered along the chain they refer to. In names and notes the source's numbering stands. Each block holds one molecule with its values, some of them ahead of it.

B1: C-terminal domain (CTD) of DNAJB6, WT sequence (residues 186–242 plus a starting Met) (domain or fragment)
chain: MGNFKSISTSTKMVNGRKITTKRIVENGQERVEVEEDGQLKSLTINGKEQLLRLDNK
notes: starting Met added before residue 186; numbers count on: full-length DNAJB6; also called WT CTD
B2: CTD STA (CTD with S190A + S192A + T193A + S194A + T195A in β1) (domain or fragment)
chain: B1 chain with S6A, S8A, T9A, S10A, T11A
notes: starting Met added before residue 186; numbers count on: full-length DNAJB6; also called S/T-A-substituted variant

What was measured:
[1] = biological target: Aβ42 fibrils (amyloid-β peptide Aβ(M1-42), fibrillar form); test: SPR; Aβ42 fibrils immobilised, construct injected (CTD at 2, 5 and 10 μM); 20 mM sodium phosphate, 0.2 mM EDTA, pH 8.0, 0.005% Tween-20
[2] = biological target: S100G-CTDβ1–4 (four β-strands of the DNAJB6 CTD, residues 187–231, grafted between the two EF-hands of human S100G) (UniProt O75190); test: cross-linking; 10 μM construct, BS3 amine-reactive crosslinker, 20 mM sodium phosphate, 0.2 mM EDTA (pH 8.0), SDS-PAGE with integration of band intensities and LC-MS/MS of excised bands; dimer to monomers; KD are lower bounds
[3] = biological target: S100G-CTDβ1–2 (β-strands 1 and 2 of the DNAJB6 CTD, residues 187–212, grafted between the two EF-hands of human S100G) (UniProt O75190); test: as above
[4] = biological target: S100G-CTDβ1–4STA (ST/A-substituted variant of S100G-CTDβ1–4) (UniProt O75190); test: as above
[5] = biological target: S100G-CTDβ1–2STA (ST/A-substituted variant of S100G-CTDβ1–2) (UniProt O75190); test: as above
[6] = biological target: Aβ42 fibrils (amyloid-β peptide Aβ(M1-42), fibrillar form)
[7] = biological target: the molecule itself; test: cross-linking; 10 μM construct, BS3 amine-reactive crosslinker, 20 mM sodium phosphate, 0.2 mM EDTA (pH 8.0), SDS-PAGE with integration of band intensities and LC-MS/MS of excised bands; dimer to monomers; KD are lower bounds
[8] = biological target: the molecule itself; test: cross-linking; 10 μM construct, BS3 amine-reactive crosslinker, 20 mM sodium phosphate, 0.2 mM EDTA (pH 8.0), SDS-PAGE with integration of band intensities and LC-MS/MS of excised bands; tetramer to dimers; KD is a lower bound
[9] = biological target: the molecule itself; test: native MS; equimolar mixture of CTD and CTD STA ionised from 200 mM ammonium acetate, pH 6.8, source temperature 25 °C, gentle ionisation; also nonmixed samples (Fig. S3)
[10] = biological target: B1; test: as above; details: both partners purified

Ka [1]: 1e+07 M⁻¹
Kd [2]: > 500 µM
Molecule: S100G-CTDβ1–4 (four β-strands of the DNAJB6 CTD, residues 187–231, grafted between the two EF-hands of human S100G) (from UniProt O75190-2 187-231)

Ka [1]: 300000 M⁻¹
Kd [3]: > 60 µM
Molecule: S100G-CTDβ1–2 (β-strands 1 and 2 of the DNAJB6 CTD, residues 187–212, grafted between the two EF-hands of human S100G) (from UniProt O75190-2 187-212)

Kd [4]: > 1000 µM
Molecule: S100G-CTDβ1–4STA (ST/A-substituted variant of S100G-CTDβ1–4) (from UniProt O75190-2 187-231)

Kd [5]: > 1000 µM
Molecule: S100G-CTDβ1–2STA (ST/A-substituted variant of S100G-CTDβ1–2) (from UniProt O75190-2 187-212)

Ka [1]: 100000 M⁻¹
ThT fluorescence, reaction half time t1/2 of the aggregation of 3 μM Aβ42, CTD:Aβ42 M ratios from 0.05:1 to 1:1 [6]: 10 fold
Molecule: C-terminal domain (CTD) of DNAJB6, WT sequence (residues 186–242 plus a starting Met) (from UniProt O75190-2 186-241) (domain or fragment)

Molecule: B1
Kd [7]: ≥ 30 µM
Kd [8]: ≥ 2 µM
stoichiometry N [8]: 4
stoichiometry N [9]: 2

Molecule: B2
Kd [7]: ≥ 600 µM
stoichiometry N [9]: 2
binding result [10]: binds
